In assay [1] the target is T1, extracellular domain of human CD269 (BCMA, TNFRSF17), purified (human, UniProt Q02223 4-54).
T1 construct: also called BCMA extracellular domain
T1 sequence: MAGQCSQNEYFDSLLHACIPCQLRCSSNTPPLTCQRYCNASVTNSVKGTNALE
Kind of assay: surface plasmon resonance with several concentrations of BCMA (FIG. 1c).

Assay [2] deals with T1, extracellular domain of human CD269 …. Kind of assay: SPR, value printed beside the trace for 1.1 nM BCMA; neither quantity nor unit is printed on the sheet: the five printed values average 5.40E-11, which is the mean Kd of 54 pM in paragraph 181. A general note: SPR reads the build-up and loss of mass on a sensor chip optically.
For assay [3] the target is unchanged. Kind of assay: SPR, value printed beside the trace for 3.3 nM BCMA; neither quantity nor unit is printed on the sheet: the five printed values average 5.40E-11, which is the mean Kd of 54 pM in paragraph 181.
For assay [4] the target is unchanged. Kind of assay: SPR, value printed beside the trace for 10.0 nM BCMA; neither quantity nor unit is printed on the sheet: the five printed values average 5.40E-11, which is the mean Kd of 54 pM in paragraph 181.
Assay [5] has the same target. Kind of assay: SPR, value printed beside the trace for 30.0 nM BCMA; neither quantity nor unit is printed on the sheet: the five printed values average 5.40E-11, which is the mean Kd of 54 pM in paragraph 181.
The target is the same in assay [6]. Kind of assay: SPR, value printed beside the trace for 90.0 nM BCMA; neither quantity nor unit is printed on the sheet: the five printed values average 5.40E-11, which is the mean Kd of 54 pM in paragraph 181.

B1: J22.9-xi chimeric antibody (mouse VH/VL of hybridoma J22.9 on human IgG1 and kappa constant domains) (antibody, V domains shown)
VH: QVQLQQSGGGLVQPGGSLKLSCAASGIDFSRYWMSWVRRAPGKGLEWIGEINPDSSTINYAPSLKDKFIISRDNAKNTLYLQMSKVRSEDTALYYCASLYYDYGDAMDYWGQGTSVTVSS
VL: DIVMTQSQRFMTTSVGDRVSVTCKASQSVDSNVAWYQQKPRQSPKALIFSASLRFSGVPARFTGSGSGTDFTLTISNLQSEDLAEYFCQQYNNYPLTFGAGTKLELKR
modifications: N-linked oligosaccharide chain at Asn297
notes: Full length IgG made in 293-6E cells; the constant domains are marked 'Used in J22.9-xi'
Turning to B1, the Kd in assay [1] came out at 54 pM; in assay [2] it was 21 pM; in assay [3], 36.2 pM; in assay [4] it was 55.5 pM; in assay [5], 69.5 pM; in assay [6], 88 pM.

A word on the Kd: it is the constant that tells how readily two partners part at equilibrium. The low end stands for higher affinity, the high end for lower affinity.

These data come from patent US20150284467A1 (MAX DELBR CK CENTRUM F R MOLEKULARE MEDIZIN, published 2015).
